Test results taken from IntAct's records for PubMed 27178753.

B1: Focal adhesion kinase 1 (Homo sapiens), Q05397 (parent)
chain: MAAAYLDPNLNHTPNSSTKTHLGTGMERSPGAMERVLKVFHYFESNSEPTTWASIIRHGDATDVRGIIQKIVDSHKVKHVACYGFRLSHLRSEEVHWLHVDMGVSSVREKYELAHPPEEWKYELRIRYLPKGFLNQFTEDKPTLNFFYQQVKSDYMLEIADQVDQEIALKLGCLEIRRSYWEMRGNALEKKSNYEVLEKDVGLKRFFPKSLLDSVKAKTLRKLIQQTFRQFANLNREESILKFFEILSPVYRFDKECFKCALGSSWIISVELAIGPEEGISYLTDKGCNPTHLADFTQVQTIQYSNSEDKDRKGMLQLKIAGAPEPLTVTAPSLTIAENMADLIDGYCRLVNGTSQSFIIRPQKEGERALPSIPKLANSEKQGMRTHAVSVSETDDYAEIIDEEDTYTMPSTRDYEIQRERIELGRCIGEGQFGDVHQGIYMSPENPALAVAIKTCKNCTSDSVREKFLQEALTMRQFDHPHIVKLIGVITENPVWIIMELCTLGELRSFLQVRKYSLDLASLILYAYQLSTALAYLESKRFVHRDIAARNVLVSSNDCVKLGDFGLSRYMEDSTYYKASKGKLPIKWMAPESINFRRFTSASDVWMFGVCMWEILMHGVKPFQGVKNNDVIGRIENGERLPMPPNCPPTLYSLMTKCWAYDPSRRPRFTELKAQLSTILEEEKAQQEERMRMESRRQATVSWDSGGSDEAPPKPSRPGYPSPRSSEGFYPSPQHMVQTNHYQVSGYPGSHGITAMAGSIYPGQASLLDQTDSWNHRPQEIAMWQPNVEDSTVLDLRGIGQVLPTHLMEERLIRQQQEMEEDQRWLEKEERFLKPDVRLSRGSIDREDGSLQGPIGNQHIYQPVGKPDPAAPPKKPPRPGAPGHLGSLASLSSPADSYNEGVKLQPQEISPPPTANLDRSNDKVYENVTGLVKAVIEMSSKIQPAPPEEYVPMVKEVGLALRTLLATVDETIPLLPASTHREIEMAQKLLNSDLGELINKMKLAQQYVMTSLQQEYKKQMLTAAHALAVDAKNLLDVIDQARLKMLGQTRPH

Variants of: B1
Details: with itb4_human ITGB4, P16144
itb4_human ITGB4, P16144, sequence (P16144 whole entry): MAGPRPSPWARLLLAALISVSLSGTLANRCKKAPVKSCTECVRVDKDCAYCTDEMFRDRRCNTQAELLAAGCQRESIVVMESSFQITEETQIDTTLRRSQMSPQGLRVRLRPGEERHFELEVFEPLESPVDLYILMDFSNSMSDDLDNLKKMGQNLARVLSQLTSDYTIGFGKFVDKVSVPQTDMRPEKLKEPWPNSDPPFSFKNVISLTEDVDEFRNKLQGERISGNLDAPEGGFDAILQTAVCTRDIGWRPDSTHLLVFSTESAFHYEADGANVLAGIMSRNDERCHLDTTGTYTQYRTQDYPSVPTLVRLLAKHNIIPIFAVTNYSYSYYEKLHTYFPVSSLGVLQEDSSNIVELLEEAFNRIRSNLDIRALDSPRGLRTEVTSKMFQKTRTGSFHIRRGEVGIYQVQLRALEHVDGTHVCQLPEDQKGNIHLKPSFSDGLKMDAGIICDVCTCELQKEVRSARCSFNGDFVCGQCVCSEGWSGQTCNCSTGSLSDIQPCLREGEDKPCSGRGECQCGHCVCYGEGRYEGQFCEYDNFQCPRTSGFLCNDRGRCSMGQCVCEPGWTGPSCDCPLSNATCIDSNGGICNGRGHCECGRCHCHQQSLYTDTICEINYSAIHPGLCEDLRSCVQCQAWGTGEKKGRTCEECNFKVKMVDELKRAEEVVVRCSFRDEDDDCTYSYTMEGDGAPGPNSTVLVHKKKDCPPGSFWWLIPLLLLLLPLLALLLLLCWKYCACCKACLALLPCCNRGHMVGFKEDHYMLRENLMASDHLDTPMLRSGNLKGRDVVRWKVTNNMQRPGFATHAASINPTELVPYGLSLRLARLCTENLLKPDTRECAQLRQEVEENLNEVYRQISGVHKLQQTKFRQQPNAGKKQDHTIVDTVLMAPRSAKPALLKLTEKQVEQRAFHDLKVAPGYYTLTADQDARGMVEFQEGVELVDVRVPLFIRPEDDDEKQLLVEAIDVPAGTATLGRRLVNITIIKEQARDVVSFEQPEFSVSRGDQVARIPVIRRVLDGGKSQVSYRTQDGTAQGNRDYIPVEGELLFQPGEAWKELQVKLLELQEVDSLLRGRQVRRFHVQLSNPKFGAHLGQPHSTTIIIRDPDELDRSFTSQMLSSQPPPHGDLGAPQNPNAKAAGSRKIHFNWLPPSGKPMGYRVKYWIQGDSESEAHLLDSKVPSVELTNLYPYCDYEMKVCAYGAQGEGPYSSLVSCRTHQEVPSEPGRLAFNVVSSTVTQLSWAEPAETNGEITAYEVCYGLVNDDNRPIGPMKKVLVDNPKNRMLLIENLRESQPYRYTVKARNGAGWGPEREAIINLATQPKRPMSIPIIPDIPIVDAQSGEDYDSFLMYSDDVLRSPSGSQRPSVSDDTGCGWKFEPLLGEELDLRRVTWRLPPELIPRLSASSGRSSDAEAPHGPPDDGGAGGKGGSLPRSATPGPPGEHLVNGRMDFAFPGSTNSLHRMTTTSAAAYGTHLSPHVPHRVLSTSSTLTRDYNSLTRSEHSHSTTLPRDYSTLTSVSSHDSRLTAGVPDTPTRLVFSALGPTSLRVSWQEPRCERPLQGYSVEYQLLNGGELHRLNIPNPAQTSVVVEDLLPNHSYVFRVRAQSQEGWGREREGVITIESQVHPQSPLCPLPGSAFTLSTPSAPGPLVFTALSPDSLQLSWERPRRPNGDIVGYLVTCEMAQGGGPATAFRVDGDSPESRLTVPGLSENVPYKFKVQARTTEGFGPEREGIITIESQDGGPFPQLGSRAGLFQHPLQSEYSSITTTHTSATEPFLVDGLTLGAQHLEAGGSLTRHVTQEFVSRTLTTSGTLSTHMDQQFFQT

Variant | effect of a mutation on the interaction
E380A;K381A;Q382A | disrupting interaction

Variants of: B1
Details: with itb4_human ITGB4, P16144
Remark: another data set of the same source

Variant | effect of a mutation on the interaction
R385A;T386A | decreasing interaction
